Laboratory results taken from publication PMC10897489 (2024).

Biological target: reported 23mer NSP3 peptide from alphaviruses
Assay: ITC

B1: FXR1 1–122 (domain or fragment)
chain: not shown
Question: For B1, which Kd is on record?
Answer: 19.4 µM
